Columns and labels:
[1] = target: T1, human PD-1 (human, UniProt Q15116 21-170); experiment: bio-layer interferometry (BLI)
[2] = target: T2, cynomolgus monkey PD-1 (cynomolgus monkey, UniProt B0LAJ3 25-170); experiment: not stated in the sentence (BLI named in the next sentence), 25 C
T2 construct: construct not described; also called cynomologous monkey PD-1

[3] = target: T1, human PD-1; experiment: not stated in the sentence (BLI named in the next sentence), 25 C; 25 C; stated bound in the text

T1 sequence (Q15116 21-170 limits assumed, form in doubt): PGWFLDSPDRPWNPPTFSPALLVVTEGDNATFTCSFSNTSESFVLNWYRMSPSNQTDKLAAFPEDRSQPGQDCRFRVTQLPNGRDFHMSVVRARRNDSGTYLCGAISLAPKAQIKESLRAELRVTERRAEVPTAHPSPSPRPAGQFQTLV
T2 sequence (B0LAJ3 entry or part of it limits assumed): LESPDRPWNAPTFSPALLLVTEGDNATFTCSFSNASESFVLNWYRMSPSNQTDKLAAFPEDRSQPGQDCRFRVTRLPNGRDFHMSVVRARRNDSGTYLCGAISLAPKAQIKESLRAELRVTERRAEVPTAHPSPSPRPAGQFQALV

B1: AM0001 (antibody, human IgG4 S228P, lambda, V domains shown)
VH: EVQLLESGGGLVQPGGSLRLSCPASGFTFSSYAMSWVRQAPGKGLGWVSDISGGGGTTYYADSVKGRFTISRDNSKNTLYLQMNSLRGEDTAVYYCAKSGTVVTDFDYWGQGTLVTVSS
VL: SYVLTQPPSVSVAPGQTARVTCGGNSIGSYSVHWYQQKPGQAPVLVVYDDSDRPSGIPERFSGSNSGNTAALTISRVEAGDEADYYCQVWDTSSYWVFGGGTKLTVLG
notes: Monoclonal antibody with lambda 2 light chain and hinge-stabilized IgG4 (S228P) heavy chain; also called PD1-antagonist antibody
In the case of B1, the Kd [1] is reported as < 0.001 nM, the Kd [2] is reported as ≤ 0.01 nM and the Kd [3] is reported as ≤ 0.01 nM.

— US20210347842A1 (Eli Lilly, published 2021)
